# T1: p52 (1-341) fused to a BiFC fragment (human, UniProt Q00653 1-341)
# T1 construct: NF-kappaB p52 (processed product of NF-kappaB2/p100), rel homology region, residues 1-341; Three constructs that differ only in the fluorescent-protein fragment are written as one molecule; The methods give limits for p52-VN and p52-CC only; also called p52-VN; p52-CC; not shown: BiFC fragment behind a (GGGGS)2 linker (Venus 1-172 in p52-VN; Cerulean 155-238 in p52-CC; N-terminal fragment of …)
# T1 sequence (looked up): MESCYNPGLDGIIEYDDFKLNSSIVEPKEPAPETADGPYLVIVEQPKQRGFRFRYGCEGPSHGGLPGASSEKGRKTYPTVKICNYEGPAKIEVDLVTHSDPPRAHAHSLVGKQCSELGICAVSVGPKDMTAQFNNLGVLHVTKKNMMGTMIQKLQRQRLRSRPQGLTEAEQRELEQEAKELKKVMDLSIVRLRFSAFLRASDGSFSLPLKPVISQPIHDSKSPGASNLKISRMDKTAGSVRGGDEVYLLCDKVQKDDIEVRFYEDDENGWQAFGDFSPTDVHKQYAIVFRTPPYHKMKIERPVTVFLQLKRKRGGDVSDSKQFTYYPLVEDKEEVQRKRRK
# T2: Recombinant non-tagged human p50 (1-435) (human, UniProt P19838 1-435)
# T2 chain: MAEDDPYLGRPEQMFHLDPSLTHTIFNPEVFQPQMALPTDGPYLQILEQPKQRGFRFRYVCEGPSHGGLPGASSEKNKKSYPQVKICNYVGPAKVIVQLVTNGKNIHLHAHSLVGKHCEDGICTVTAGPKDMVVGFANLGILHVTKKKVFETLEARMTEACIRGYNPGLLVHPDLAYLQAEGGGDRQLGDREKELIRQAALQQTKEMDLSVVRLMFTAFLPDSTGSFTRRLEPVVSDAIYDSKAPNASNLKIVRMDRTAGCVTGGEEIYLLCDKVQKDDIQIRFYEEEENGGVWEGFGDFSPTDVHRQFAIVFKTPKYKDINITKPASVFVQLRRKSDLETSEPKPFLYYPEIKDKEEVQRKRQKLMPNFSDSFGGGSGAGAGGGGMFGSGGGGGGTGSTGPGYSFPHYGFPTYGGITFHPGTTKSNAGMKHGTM
# T3: Recombinant non-tagged human p52 (1-398) (human, UniProt Q00653 1-398)
# T3 chain: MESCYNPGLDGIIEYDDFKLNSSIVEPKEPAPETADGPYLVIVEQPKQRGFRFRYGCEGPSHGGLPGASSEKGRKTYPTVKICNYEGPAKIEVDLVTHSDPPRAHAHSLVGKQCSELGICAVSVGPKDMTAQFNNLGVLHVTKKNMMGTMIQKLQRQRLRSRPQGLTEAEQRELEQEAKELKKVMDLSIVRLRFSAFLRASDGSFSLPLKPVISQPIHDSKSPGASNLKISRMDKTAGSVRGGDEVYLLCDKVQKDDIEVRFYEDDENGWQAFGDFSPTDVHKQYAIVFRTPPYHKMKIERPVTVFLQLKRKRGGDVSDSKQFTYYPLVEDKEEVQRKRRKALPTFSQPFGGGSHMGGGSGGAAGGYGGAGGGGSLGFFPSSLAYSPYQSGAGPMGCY
# B1: RelB (1-400) fused to a BiFC fragment (domain or fragment, UniProt Q04863 1-400, looked up)
# chain: MPSRRAARESAPELGALGSSDLSSLSLTVSRTTDELEIIDEYIKENGFGLDGTQLSEMPRLVPRGPASLSSVTLGPAAPPPPATPSWSCTLGRLVSPGPCPRPYLVITEQPKQRGMRFRYECEGRSAGSILGESSTEASKTLPAIELRDCGGLREVEVTACLVWKDWPHRVHPHSLVGKDCTDGVCRVRLRPHVSPRHSFNNLGIQCVRKKEIEAAIERKIQLGIDPYNAGSLKNHQEVDMNVVRICFQASYRDQQGHLHRMDPILSEPVYDKKSTNTSELRICRINKESGPCTGGEELYLLCDKVQKEDISVVFSTASWEGRADFSQADVHRQIAIVFKTPPYEDLEISEPVTVNVFLQRLTDGVCSEPLPFTYLPRDHDSYGVDKKRKRGLPDVLGEL
# notes: RelB, rel homology region, residues 1-400; Three constructs that differ only in the fluorescent-protein fragment are written as one molecule; The methods give limits for RelB-CN only; also called RelB-CN; RelB-VN; not shown: BiFC fragment behind a (GGGGS)2 linker (Cerulean 1-172 in RelB-CN; N-terminal fragment of Venus in RelB-VN; C-terminal fragment of Cerulean in RelB-CC; one for each …)
# B2: His-Bcl3(1-446) (natural protein)
# chain: MDEGPVDLRTRPKAAGLPGAALPLRKRPLRAPSPEPAAPRGAAGLVVPLDPLRGGCDLPAVPGPPHGLARPEALYYPGALLPLYPTRAMGSPFPLVNLPTPLYPMMCPMEHPLSADIAMATRADEDGDTPLHIAVVQGNLPAVHRLVNLFQQGGRELDIYNNLRQTPLHLAVITTLPSVVRLLVTAGASPMALDRHGQTAAHLACEHRSPTCLRALLDSAAPGTLDLEARNYDGLTALHVAVNTECQETVQLLLERGADIDAVDIKSGRSPLIHAVENNSLSMVQLLLQHGANVNAQMYSGSSALHSASGRGLLPLVRTLVRSGADSSLKNCHNDTPLMVARSRRVIDILRGKATRPASTSQPDPSPDRSANTSPESSSRLSSNGLLSASPSSSPSQSPPRDPPGFPMAPPNFFLPSPSPPAFLPFAGVLRGPGRPVPPSPAPGGS
# How the values were obtained:
# [1] = target: T1, p52 (1-341) fused to a BiFC fragment; assay: split reporter (BiFC, NanoBiT); multicolor BiFC: three BiFC constructs (VN, CC, CN) co-expressed in HEK 293T cells so that two dimers compete, with or without co-expressed Bcl3 or RelB; cells fixed with methanol 48 h after transfection; Venus and Cerulean intensity as percent of the two-construct reference; details: partners not purified
# [2] = target: T2, Recombinant non-tagged human p50 (1-435); assay: BLI; p50:p50 homodimer
# [3] = target: T3, Recombinant non-tagged human p52 (1-398); assay: BLI; p52:p52 homodimer
# [4] = target: T2, Recombinant non-tagged human p50 (1-435); assay: BLI; p50:p50 homodimer
# [5] = target: T3, Recombinant non-tagged human p52 (1-398); assay: BLI; p52:p52 homodimer
# [6] = target: T2, Recombinant non-tagged human p50 (1-435); assay: BLI; p50:p50 homodimer; duplicate experiment
# [7] = target: T3, Recombinant non-tagged human p52 (1-398); assay: BLI; p52:p52 homodimer; duplicate experiment
# [8] = target: T2, Recombinant non-tagged human p50 (1-435); assay: BLI; p50:p50 homodimer; duplicate experiment
# [9] = target: T3, Recombinant non-tagged human p52 (1-398); assay: BLI; p52:p52 homodimer; duplicate experiment
Binder,"fold more stable than the p52:p52 homodimer (BiFC fluorescence, without Bcl3) [1] [fold]",koff [2] [s⁻¹],koff [3] [s⁻¹],Kd [4] [nM],Kd [5] [nM],koff [6] [s⁻¹],koff [7] [s⁻¹],Kd [8] [nM],Kd [9] [nM]
B1,~20,–,–,–,–,–,–,–,–
B2,–,0.000354,0.000393,6.87,3.12,0.00033,0.000323,6.56,2.4
